Experimental data reported in US6635440, “Method of isolation of RNA-binding compounds” (European Molecular Biology Laboratory).

B1: U1Awt (U1 snRNA loop 2) GFP 5'UTR (ssRNA)
RNA: AAUUAUCUACUUAAGCGAUUGCACUCCCGCUUAAGAACACAAAACUCGAGAACAUAUUUUUAAUAUUAUG
B2: MSC GFP 5'UTR (ssRNA)
RNA: AAUUAUCUACUUAAGGACCAUCAGGCCUUAAGAACACAAAACUCGAGAACAUAUUUUUAAUAUUAUG
B3: MSA GFP 5'UTR (ssRNA)
RNA: AAUUAUCUACUUAAGGACCAUAAGGCCUUAAGAACACAAAACUCGAGAACAUAUUUUUAAUAUUAUG

Key:
U1A spliceosomal protein = U1A spliceosomal protein (UniProt P09012 P09012:2-282); assay: cell_activity; GFP repression in yeast, galactose vs glucose; conditions: tags: expressed from YCpU1A in S. cerevisiae RS453; hairpin
Description: (§1) YCpU1A, YCpIRP-1 and YCpCP were used for the galactose inducible expression of U1A, IRP-1 and MS2 coat protein, respectively. These plasmids contain a URA3 selection marker. The sequences and nomenclature of the GFP reporter plasmids are described in FIG. 3. Binding site insertions are represented by Capital letters. Differences between wild type and mutated binding sites are indicated by arrows.
(§2) This reduction specifically requires the presence of the wild type binding site and the cognate binding protein, and is not seen with either the mutant binding sites (FIG. 4c and f) or the non-cognate binding proteins (FIGS. 4a and d).

MS2 coat protein = MS2 coat protein (Bacteriophage MS2, UniProt P03612 P03612:2-130); assay: as above; conditions: tags: expressed from YCpCP in S. cerevisiae RS453; chain copies: 2; hairpin
Description: as §1, §2

Sequence of MS2 coat protein (P03612 2-130, one chain of several): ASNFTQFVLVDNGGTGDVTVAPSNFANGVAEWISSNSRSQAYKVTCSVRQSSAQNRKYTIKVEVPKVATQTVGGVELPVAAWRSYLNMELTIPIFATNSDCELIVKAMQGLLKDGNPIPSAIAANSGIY
Sequence of U1A spliceosomal protein (P09012 2-282, one chain of several): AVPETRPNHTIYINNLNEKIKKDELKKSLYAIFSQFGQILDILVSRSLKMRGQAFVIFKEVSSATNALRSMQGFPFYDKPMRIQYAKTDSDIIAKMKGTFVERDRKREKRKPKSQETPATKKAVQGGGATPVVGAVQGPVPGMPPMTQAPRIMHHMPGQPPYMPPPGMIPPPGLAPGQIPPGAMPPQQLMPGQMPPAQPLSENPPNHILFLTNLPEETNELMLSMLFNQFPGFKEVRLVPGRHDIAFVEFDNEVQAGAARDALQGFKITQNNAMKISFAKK

Row | Binder | activity (U1A spliceosomal protein) [% repression] | activity (MS2 coat protein) [% repression]
1 | B1 | ~40 | –
2 | B2 | – | ~70
3 | B3 | – | ~50
